± gives the standard deviation of the averaged measurements.
The sequences below were run on Saccharomyces cerevisiae (assay: protein stability index of tFT-peptide fusion (C-terminal peptide) (PSI (0-1 scale)); higher = more stable (slower turnover)). Settings: genetic background: wild type; temperature: 30 C.
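Also: PSI is a weighted mean of sequencing reads over stability bins, variants kept only with over 10 reads, mCherry proximal and sfGFP distal, peptide attached via GGGS linker.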

Row | Sequence | protein stability index
1 | SAPPLFPCPSPA | 0.68 ± 0.03
2 | SARPTVNRPARN | 0.6933 ± 0.0049
3 | SARVVCSSCFPM | 0.668 ± 0.017
4 | SAVLLLNAGGLV | 0.688 ± 0.0071
5 | SAVVPACIPKCE | 0.694 ± 0.035
6 | SAWHRGCSCHLC | 0.682 ± 0.029
7 | SAWVGVGHGRVS | 0.6113 ± 0.0056
8 | SAYQDFTAILLG | 0.703 ± 0.16
9 | SCGVTRVGALST | 0.664 ± 0.013
10 | SCGYRGSSAFSF | 0.62 ± 0.2
11 | SCIRATGSNVSP | 0.664 ± 0.029
12 | SCKLSPLGLLLL | 0.618 ± 0.016
13 | SCLGGRISSRCG | 0.69 ± 0.017
14 | SCPSLPPPPPCL | 0.735 ± 0.04
15 | SCQISVRLHVSH | 0.612 ± 0.016
16 | SCQSPSSQEYST | 0.751 ± 0.056
17 | SCRKGLSPRPPS | 0.7 ± 0.007
18 | SCSFPPSPFLCG | 0.677 ± 0.03
19 | SCSLGIRSFFSL | 0.7 ± 0.021
20 | SCTRASSMSLSP | 0.674 ± 0.024
21 | SCVAGSSHWTSI | 0.712 ± 0.24
22 | SCVTLTGLSGDK | 0.698 ± 0.016
23 | SCWHRNRKIILD | 0.573 ± 0.056
24 | SDFGSFRFRSIV | 0.5773 ± 0.0018
25 | SDKVLSSTEIQN | 0.719 ± 0.039
26 | SDNIKIPKEKRK | 0.668 ± 0.026

Row | Sequence | protein stability index
27 | SEGCASLSGRVG | 0.665 ± 0.047
28 | SEGCPILALVKP | 0.638 ± 0.035
29 | SEHSTYFSRNCF | 0.726 ± 0.032
30 | SEIFTNALLISI | 0.651 ± 0.026
31 | SEIKVIMNESKS | 0.679 ± 0.009
32 | SEIRIQTFETGG | 0.671 ± 0.061
33 | SEWFETRNPMSI | 0.685 ± 0.096
34 | SEYPCSDRAEVA | 0.65 ± 0.017
35 | SFASGFFVVKDF | 0.658 ± 0.031
36 | SFCHWHLFPPRS | 0.711 ± 0.041
37 | SFFLSFFSPLVL | 0.63 ± 0.038
38 | SFFSPFPSRICS | 0.829 ± 0.032
39 | SFHIAARFRSLP | 0.719 ± 0.062
40 | SFLFDSPYFVAI | 0.699 ± 0.018
41 | SFLPRVVVRSTP | 0.667 ± 0.015
42 | SFLSMDANDLLS | 0.7 ± 0.029
43 | SFLVPRARPVLL | 0.688 ± 0.041
44 | SFMVISSGSSVR | 0.725 ± 0.023
45 | SFNLFFVVSPAL | 0.608 ± 0.097
46 | SFPRPPSSPSPL | 0.714 ± 0.021
47 | SFRASVSAPCLF | 0.683 ± 0.067
48 | SFRFVLVQCSGV | 0.5601 ± 0.0046
49 | SFSFPPHPLKSL | 0.723 ± 0.1
50 | SFVECVDVMGRW | 0.757 ± 0.056
51 | SFYSSPTVPFLP | 0.717 ± 0.044
52 | SGAGGGVWWGGV | 0.73 ± 0.0092

Row | Sequence | protein stability index
53 | SGAGRRMGGARE | 0.657 ± 0.051
54 | SGAIDRSAYIDG | 0.622 ± 0.028
55 | SGCGVRFLLCRL | 0.801 ± 0.065
56 | SGCIYLLQTPME | 0.636 ± 0.012
57 | SGCSWRGSPVKE | 0.636 ± 0.0076
58 | SGGGCVYRGGRG | 0.633 ± 0.015
59 | SGHELLGSVFRR | 0.681 ± 0.076
60 | SGIILEKGGGGN | 0.679 ± 0.026
61 | SGLGRLRSGRVL | 0.698 ± 0.012
62 | SGLRHLLPSGHN | 0.711 ± 0.041
63 | SGLRLQLLVGHT | 0.632 ± 0.013
64 | SGNALSGVIRNC | 0.783 ± 0.045
65 | SGPGGWNREVGR | 0.6841 ± 0.0024
66 | SGPHIAFYTSCP | 0.73 ± 0.053
67 | SGRAGAPSVIRR | 0.694 ± 0.053
68 | SGRDWYHSLGGA | 0.742 ± 0.052
69 | SGRGLPLGGAFD | 0.727 ± 0.026
70 | SGRSQHFVSFLR | 0.664 ± 0.018
71 | SGRSSQNHRCWI | 0.684 ± 0.012
72 | SGSGGGGMRLGS | 0.701 ± 0.026
73 | SGSGLRIIRSSP | 0.657 ± 0.011
74 | SGSIRHSSPLPT | 0.75 ± 0.12
75 | SGTRIQFRLGMS | 0.723 ± 0.064
76 | SGVAAGLVAGSL | 0.673 ± 0.12
77 | SGVIRLRAVELF | 0.5726 ± 0.0017
78 | SGVKKGRSEGKR | 0.629 ± 0.051

Row | Sequence | protein stability index
79 | SGVSICLSGMGK | 0.611 ± 0.017
80 | SGWASVCARAAI | 0.745 ± 0.06
81 | SGWRYPFGCGAS | 0.763 ± 0.1
82 | SGYWWIYMSELS | 0.666 ± 0.019
83 | SHILPCTCPLAA | 0.574 ± 0.044
84 | SHLPPPSRFSSD | 0.677 ± 0.077
85 | SHPPPTLLSYLP | 0.746 ± 0.0079
86 | SHPRHSHLPFSP | 0.725 ± 0.079
87 | SHRTHPAAPHAP | 0.738 ± 0.056
88 | SHSRRSNMTLFV | 0.721 ± 0.073
89 | SHTNVILQDVTI | 0.655 ± 0.087
90 | SIDPAEFSSTLP | 0.7125 ± 0.0029
91 | SIEEKRNKIDKI | 0.769 ± 0.2
92 | SIENEYAMERKK | 0.707 ± 0.056
93 | SIKDKFIVITLK | 0.629 ± 0.11
94 | SIKKQLQKKKQK | 0.743 ± 0.1
95 | SIKNTQRFKIRN | 0.663 ± 0.034
96 | SIRGNGCVVCGT | 0.708 ± 0.093
97 | SISPWFFFFLDW | 0.579 ± 0.014
98 | SISSFLSLLFFR | 0.639 ± 0.062
99 | SIVRRVRDRIGR | 0.641 ± 0.038
100 | SIWLPPSRPPPS | 0.766 ± 0.015
101 | SKGISARLAREG | 0.653 ± 0.038
102 | SKKHIKKKQKRK | 0.687 ± 0.053
103 | SKKKKRRKEQEK | 0.745 ± 0.03
104 | SKLTRHVDLHGS | 0.6898 ± 0.0017

Row | Sequence | protein stability index
105 | SKLTSRPLSKVP | 0.718 ± 0.048
106 | SKQGNKADGCAK | 0.603 ± 0.054
107 | SKRQKKENLKET | 0.633 ± 0.044
108 | SKRRLTGYRKTK | 0.669 ± 0.052
109 | SKSDRNMQTIHY | 0.605 ± 0.067
110 | SKYKITIYWREE | 0.568 ± 0.0096
111 | SLAAPFPSLPNF | 0.652 ± 0.036
112 | SLAASPPSPLLP | 0.63 ± 0.09
113 | SLAFSVFWSIFL | 0.585 ± 0.015
114 | SLALASTLRLPP | 0.69 ± 0.047
115 | SLASHVLSRPTL | 0.7 ± 0.047
116 | SLCRQHSVFSLA | 0.653 ± 0.044
117 | SLDILVSVDGRL | 0.6546 ± 0.001
118 | SLERWNPGGSGV | 0.656 ± 0.025
119 | SLGLSRSRLPKN | 0.682 ± 0.043
120 | SLHPSPPPLLPP | 0.642 ± 0.093
121 | SLIPSRSLGFLH | 0.65 ± 0.05
122 | SLLPPRLPPPPF | 0.633 ± 0.016
123 | SLLPSHFASFSP | 0.744 ± 0.03
124 | SLLRLFFLALSY | 0.542 ± 0.071
125 | SLLSFLLRSFFP | 0.722 ± 0.065
126 | SLMCFDLSTFLG | 0.634 ± 0.08
127 | SLMLPIFLPLSR | 0.698 ± 0.04
128 | SLPAPRLGCIPC | 0.64 ± 0.044
129 | SLPFCFIPVAPF | 0.756 ± 0.058
130 | SLPGPRTELPLA | 0.644 ± 0.034

Row | Sequence | protein stability index
131 | SLPLLSLPLLDF | 0.535 ± 0.02
132 | SLPPHHLLISNA | 0.645 ± 0.028
133 | SLPPPSSHPPPL | 0.7 ± 0.09
134 | SLPQYPSGPTLT | 0.709 ± 0.029
135 | SLQEIWRSKAKV | 0.676 ± 0.054
136 | SLRESTPFCSRP | 0.553 ± 0.18
137 | SLRLSRFLLTAP | 0.5536 ± 0.0031
138 | SLRPPSTFRRSC | 0.71 ± 0.019
139 | SLRPRPSLFPPP | 0.7196 ± 0.00099
140 | SLSPLLVILANL | 0.613 ± 0.05
141 | SLSTSFSSRPPS | 0.704 ± 0.089
142 | SLTAPPNLASPW | 0.705 ± 0.089
143 | SLTENRGRKKKK | 0.664 ± 0.0082
144 | SLVLLNQHARER | 0.79 ± 0.036
145 | SLVLRPTGILLI | 0.536 ± 0.019
146 | SLWRLKESYRQS | 0.673 ± 0.039
147 | SLWTDALFLCLT | 0.727 ± 0.19
148 | SMVGCVKTPIEQ | 0.659 ± 0.023
149 | SMVGYPLPVSRN | 0.671 ± 0.039
150 | SMVRYNDFPRPL | 0.689 ± 0.081
151 | SNNWLEKTGAMT | 0.659 ± 0.03
152 | SNPCLPPPSFAS | 0.77 ± 0.019
153 | SNPFPTILSSSS | 0.736 ± 0.037
154 | SNQKLLGQDIDN | 0.659 ± 0.024
155 | SNRSAPWSRFSL | 0.68 ± 0.038
156 | SNTKLIGLIVIG | 0.539 ± 0.043

Row | Sequence | protein stability index
157 | SNTKPTCSNQQS | 0.688 ± 0.077
158 | SPAQLSYLFPAP | 0.7928 ± 0.0039
159 | SPARLRHSLSLP | 0.723 ± 0.014
160 | SPASPPPPSPLL | 0.695 ± 0.028
161 | SPCRAGRPAGLR | 0.729 ± 0.071
162 | SPCSSDPLYSFA | 0.762 ± 0.069
163 | SPEPSFPPLLLP | 0.715 ± 0.015
164 | SPFPAWPIPASV | 0.612 ± 0.036
165 | SPFPSPVLPPHT | 0.7153 ± 0.006
166 | SPGPRLSTRLRQ | 0.701 ± 0.077
167 | SPIRLPATSPSR | 0.639 ± 0.046
168 | SPKDKARMQKQS | 0.602 ± 0.063
169 | SPLFFPSSPPYP | 0.751 ± 0.023
170 | SPLHLFHPPLLH | 0.729 ± 0.023
171 | SPLNLRIPGAPT | 0.675 ± 0.034
172 | SPLPHRLFPFWS | 0.79 ± 0.015
173 | SPLPLLRPPSSH | 0.593 ± 0.047
174 | SPLPSSPRSVPP | 0.744 ± 0.094
175 | SPLPYTPPLRAF | 0.5238 ± 0.0029
176 | SPLSLPSPATFP | 0.688 ± 0.05
177 | SPLSRSRPKSYL | 0.75 ± 0.072
178 | SPLSSSDGSAAI | 0.73 ± 0.022
179 | SPPALPPFLAPL | 0.72 ± 0.1
180 | SPPCPPPHPHPP | 0.597 ± 0.012
181 | SPPCRTYFAECD | 0.713 ± 0.053
182 | SPPGPNQVARPP | 0.6873 ± 0.0057

Row | Sequence | protein stability index
183 | SPPHPPPRPPLL | 0.733 ± 0.041
184 | SPPLPPPSPTPP | 0.699 ± 0.016
185 | SPPLSLPPPGQS | 0.671 ± 0.073
186 | SPPLVFPTLLPL | 0.7101 ± 0.0029
187 | SPPPHPPLRFLP | 0.667 ± 0.049
188 | SPPPHSTPSSTG | 0.712 ± 0.054
189 | SPPPIPPPPPSR | 0.726 ± 0.042
190 | SPPPLPPPLSRP | 0.638 ± 0.067
191 | SPPPLPPPTLPT | 0.791 ± 0.084
192 | SPPPLPPTPPPL | 0.7135 ± 0.0055
193 | SPPPLPSPSPPP | 0.687 ± 0.044
194 | SPPPPLHPALPA | 0.656 ± 0.083
195 | SPPPPPPAPPPP | 0.664 ± 0.042
196 | SPPPPPPPLPPA | 0.731 ± 0.037
197 | SPPPRHLLSPRH | 0.697 ± 0.0077
198 | SPPPSSPPAPPR | 0.717 ± 0.11
199 | SPPRLPTPPPLR | 0.705 ± 0.022
200 | SPPRPPAPPSPT | 0.701 ± 0.014
201 | SPPRPPCLPLTP | 0.713 ± 0.048
202 | SPPSPLALSLRF | 0.707 ± 0.025
